The target in this test is Ulp1^403-621-C580S, on CNBr-activated resin (S. cerevisiae) (UniProt Q02724). Put plainly: pull-down; Ulp1^403-621-C580S on CNBr-activated resin incubated with yeast whole cell extract, 2 h at 4 °C, PBSN buffer; anti-Smt3 Western blot. Background: In western blotting, separated proteins are transferred to a membrane and probed.
Chain of UniProt Q02724 (Q02724 403-621 C580S): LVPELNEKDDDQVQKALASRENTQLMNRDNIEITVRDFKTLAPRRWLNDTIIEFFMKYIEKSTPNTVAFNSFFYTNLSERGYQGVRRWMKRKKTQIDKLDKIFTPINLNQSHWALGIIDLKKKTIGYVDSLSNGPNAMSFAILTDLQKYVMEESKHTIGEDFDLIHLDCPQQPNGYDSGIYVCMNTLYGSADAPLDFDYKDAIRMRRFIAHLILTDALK

“Smt3 (yeast SUMO), as endogenous SUMO conjugates in yeast cell extract (from UniProt Q12306 1-101) (natural protein)” gave a percent of SUMO conjugates recovered on the resin of 50%.
